According to US20240084017A1 (ASCENDO BIOTECHNOLOGY, published 2024):
Substitutions are numbered along the chain they refer to.

B1: anti-Mac-1 antibody clone m2396 (antibody, human IgG4, V domains shown)
VH: QVQLQESGPGLVKPSETLSLTCTVSGFSLTSNSISWVRQPPGKGLEWMGAIWSGGGTDYNPSLKSRLTISRDTSKSQVFLKMSSLTAADTAIYFCTRGGYPYYFDYWGQGVLVTVSS
VL: DIVMTQSPDSLAVSLGERVTINCKSSQSLLYSENQENYLAWYQQKPGQSPKLLIYWASTRQSGVPDRFSGSGSGTDFTLTISSVQAEDLAIYYCQQYYDTPLTFGGGTKLEIK
B2: anti-Mac-1 antibody clone 27E12 (antibody, human IgG4, V domains shown)
VH: QVQLQQSGTVLARPGASVKMSCKASGYTFTSYWMHWVKQRPGQGLEWIGAIYPGNSDTSYNQKFKGKAKLTAVTSASTAYMELSSLTNEDSAVYYCTRGGGSYEFAYWGQGTTVTVSS
VL: DIELTQSPAIMSASPGEKVTMTCSVSSSVSYMYWYQQKPGSSPRLLIYDTSNLASGVPARFSGSGSGTSYSLTISSMEAEDAATYYCQQWSSNPFTFGSGTKLEIK
B3: anti-Mac-1 antibody clone 24G05 (antibody, human IgG4, V domains shown)
VH: EVQLVESGGGLVQPGGSLRLSCAASGFTFTSYWMTWVRQAPGKGLEWVSTIVGGGGEADYADSVKGRFTISRDNSKNTLYLQMNSLRAEDTAVYYCARDYVADNHGAMDYWGQGTLVTVSS
VL: DIQMTQSPSSLSASVGDRVTITCRASQGLSSYLNWYQQKPGKAPKLLIYGMSTLQSGVPSRFSGSGSGTDFTLTISSLQPEDFATYYCMQYYHWPYTFGQGTKVEIK
B4: anti-Mac-1 antibody clone 28E07-HH (antibody, human IgG4, V domains shown)
VH: QVQLVQSGAEVKKPGASVKVSCKASGYSFTDYNMNWVRQAPGQGLEWMGEINPGYGTSRYNQKFKDRVTMTRDTSISTAYMELSRLRSDDTAVYYCARADVDYGDVMDYWGQGTLVTVSS
VL: EIVLTQSPATLSLSPGERATLSCSASSSVSYMHWYQQKPGQAPRLLIYDTSKLASGIPARFSGSGSGTDFTLTISSLEPEDFAVYYCQQWSSNPPTFGQGTKLEIK
B5: anti-Mac-1 antibody clone 28D06 (antibody, human IgG4, V domains shown)
VH: QVKLQQSGPELVKPGASVKISCKASGYSFTDYNMNWVKQSNGKSLEWIGEINPNYGTTRYNQKFKGKATLTVDQSSSTAYMQLNSLTSEDSAVYYCARPSIYYDYDDAMDYWGQGTTVTVSS
VL: DIELTQSPAIMSASPGEKVTMTCSASSSVNYMYWYQQKPGSSPRLLIYDTSNLASGVPVRFSGSGSGTSYSLTISRMEAEDAATYYCQQWITYPPTLTFGAGTKLEIK
B6: anti-Mac-1 antibody clone DF3M-5 (antibody, human IgG4, V domains shown)
VH: EVQLVESGGGLVQPGGSLRLSCAASGFTFGTYDMHWVRQAPGKGLEWVSMISPSGGDTYYADSVKGRFTISRDNSKNTLYLQMNSLRAEDTAVYYCARDSSGDWYAMAYWGQGTLVTVSS
VL: DIQMTQSPSSLSASVGDRVTITCRASQSIRRYLAWYQQKPGKAPKLLIYGASNLQSGVPSRFSGSGSGTDFTLTISSLQPEDFATYYCQHSSDTPLTFGQGTKVEIK
B7: anti-Mac-1 antibody clone 24G09 (antibody, human IgG4, V domains shown)
VH: EVQLVESGGGLVQPGGSLRLSCAASGFTFSDYAIGWVRQAPGKGLEWVSTIYWSGSNAYYADSVKGRFTISRDNSKNTLYLQMNSLRAEDTAVYYCARLFTLGYHGFDVWGQGTLVTVSS
VL: B6 VL with R30N, R31T, A34N, G50D, H90Q, S91Y, S92D, T94L, L96F
B8: anti-Mac-1 antibody clone 24F08 (antibody, human IgG4, V domains shown)
VH: EVQLVESGGGLVQPGGSLRLSCAASGFTFSSYWMSWVRQAPGKGLEWVSIINYSGREADYADSVKGRFTISRDNSKNTLYLQMNSLRAEDTAVYYCARDGSYVGQAHEAFDIWGQGTLVTVSS
VL: B6 VL with R30S, R31K, A51T, H90Q, S92R, D93S, T94W
B9: anti-Mac-1 antibody clone 24F09 (antibody, human IgG4, V domains shown)
VH: EVQLVESGGGLVQPGGSLRLSCAASGFTFSSAWMSWVRQAPGKGLEWVSTIYWSGSEINYADSVKGRFTISRDNSKNTLYLQMNSLRAEDTAVYYCARSFASGESAMDVWGQGTLVTVSS
VL: B6 VL with R30S, R31N, G50D, H90Q, S91Y, S92Y, D93S, T94S, L96P
notes: also called 24F9
B10: anti-Mac-1 antibody clone DF4-25 (antibody, human IgG4, V domains shown)
VH: EVQLVESGGGLVQPGGSLRLSCAASGFTFKDYWLSWVRQAPGKGLEWVSIINYGGSETYYADSVKGRFTISRDNSKNTLYLQMNSLRAEDTAVYYCARTQTSYVMDYWGQGTLVTVSS
VL: DIQMTQSPSSLSASVGDRVTITCRASQSVRSGLNWYQQKPGKAPKLLIYAASSLQSGVPRRFSGSGSGTDFTLTISSLQPEDFATYYCMQSHSWPLTFGQGTKVEIK
B11: anti-Mac-1 antibody clone H4L2 (antibody, human IgG4, V domains shown)
VH: QVQLVQSGAEVKKPGASVKVSCKASGYTFTNYWINWVRQAPGQRLEWMGNIYPSDTYINHNQKFKDRVTITRDTSASTAYMELSSLRSEDTAVYYCARSAYANYFDYWGQGTLVTVSS
VL: EIVMTQSPATLSVSPGERATLSCRASQNIGTSIHWYQQKPGQAPRLLIYYASESISGIPARFSGSGSGTEFTLTISSLQSEDFAVYYCQQSDSWPTLTFGQGTKLEIK

biological target: T1, human Mac-1 (integrin αMβ2, CD11b/CD18) (human, UniProt P11215 17-1152; P05107 23-769); assay: flow cytometry, HEK293/Mac-1 cells, PBS/MnCl2 (Mn2+), 10 µg/ml of this antibody; binding of reporter mAb m24 read
Procedure: (§1) The HEK293/Mac-1 cells (clone1-4) were counted and washed twice with staining buffer (PBS containing 1% FBS, and 0.1% sodium azide). Cells were adjusted at a concentration of 1×10⁵ cells/ml in staining buffer and treated with/without 0.25 mM MnCl₂ (Sigma). Cells were treated with anti-Mac-1 antibodies and fluorescent conjugated anti-human IgG4 antibodies and incubated for 15 mins. After washing with the staining buffer, the cells were analyzed by flow cytometry. In some examples, these cells were treated with the antibodies (ICRF44, KIM127, m24, or isotype control) in the presence or absence 10 μg/ml anti-Mac-1 antibodies. The cells were then incubated at 37° C. for 30 min. After washing with the staining buffer, the cells were analyzed by flow cytometry.
(§2) TABLE IV The anti-Mac-1 antibody can serve as an antagonist to reduce the conformational change of Mac-1. HEK293/Mac-1 cells (clone1-4) were incubated with 10 μg/ml anti-Mac-1 antibodies under the PBS/MnCl₂ (Mn²⁺) condition. Binding of KIM127 or m24 was detected using flow cytometry.

Row | Binder | m24 (Expression relative to IgG4)
1 | B1 | 0.83 relative to IgG4
2 | B2 | 0.85 relative to IgG4
3 | B3 | 3.85 relative to IgG4
4 | B4 | 0.75 relative to IgG4
5 | B5 | 0.62 relative to IgG4
6 | B6 | 4.4 relative to IgG4
7 | B7 | 1 relative to IgG4
8 | B8 | 4.01 relative to IgG4
9 | B9 | 4.01 relative to IgG4
10 | B10 | 4.34 relative to IgG4
11 | B11 | 0.23 relative to IgG4

biological target: T1, human Mac-1 (integrin αMβ2, CD11b/CD18); assay: flow cytometry, HEK293/Mac-1 cells (clone 1-4), PBS/MnCl2 (Mn2+)
Procedure: as §1
(§3) TABLE II The anti-Mac-1 antibodies selectively bind to different statuses of human Mac-1. HEK293/Mac-1 cells (clone1-4) were incubated in PBS (Mock), or PBS/MnCl₂ (Mn²⁺). Binding of isotype control IgG, the CD11b specific mAb (ICRF44), the CD11b activation-sensing mAb (CBRM1/5), or the screened anti-Mac-1 antibody was detected using flow cytometry.

Row | Binder | Mn^2+ MFI
12 | B1 | 107000 MFI
13 | B2 | 50800 MFI
14 | B3 | 44800 MFI
15 | B4 | 1.02e+06 MFI
16 | B5 | 30600 MFI
17 | B6 | 52500 MFI
18 | B7 | 26900 MFI
19 | B8 | 42100 MFI
20 | B9 | 33900 MFI
21 | B10 | 30500 MFI
22 | B11 | 45700 MFI

biological target: T1, human Mac-1 (integrin αMβ2, CD11b/CD18); assay: flow cytometry, HEK293/Mac-1 cells, PBS (Mock), 10 µg/ml of this antibody; binding of reporter mAb KIM127 read
Procedure: as §1
(§4) TABLE III The anti-Mac-1 antibodies can serve as agonist to enhance the conformational change of Mac-1. HEK293/Mac-1 cells (clone1-4) were incubated with 10 μg/ml anti-Mac-1 antibodies under the PBS (Mock) condition. Binding of KIM127 or m24 was detected using flow cytometry.

Row | Binder | KIM127 (Expression relative to IgG4)
23 | B1 | 1.09 relative to IgG4
24 | B2 | 1 relative to IgG4
25 | B3 | 2.22 relative to IgG4
26 | B4 | 0.9 relative to IgG4
27 | B5 | 0.99 relative to IgG4
28 | B6 | 2.49 relative to IgG4
29 | B7 | 1.01 relative to IgG4
30 | B8 | 2.17 relative to IgG4
31 | B9 | 2.05 relative to IgG4
32 | B10 | 2.23 relative to IgG4
33 | B11 | 1.11 relative to IgG4

biological target: T1, human Mac-1 (integrin αMβ2, CD11b/CD18); assay: flow cytometry, HEK293/Mac-1 cells; MFI in PBS over MFI in PBS/MnCl2
Procedure: as §1, §3

Row | Binder | Mock/Mn^2+ Ratio
34 | B1 | 1.01
35 | B2 | 1.12
36 | B3 | 1.25
37 | B4 | 1.01
38 | B5 | 1.69
39 | B6 | 0.66
40 | B7 | 1.1
41 | B8 | 1.19
42 | B9 | 1.17
43 | B10 | 1.17
44 | B11 | 0.91

biological target: T1, human Mac-1 (integrin αMβ2, CD11b/CD18); assay: flow cytometry, HEK293/Mac-1 cells, PBS/MnCl2 (Mn2+), 10 µg/ml of this antibody; binding of reporter mAb KIM127 read
Procedure: as §1, §2

Row | Binder | KIM127 (Expression relative to IgG4)
45 | B1 | 0.81 relative to IgG4
46 | B2 | 0.71 relative to IgG4
47 | B3 | 1.64 relative to IgG4
48 | B4 | 0.87 relative to IgG4
49 | B5 | 0.69 relative to IgG4
50 | B6 | 1.68 relative to IgG4
51 | B7 | 0.89 relative to IgG4
52 | B8 | 1.73 relative to IgG4
53 | B9 | 1.71 relative to IgG4
54 | B10 | 1.75 relative to IgG4
55 | B11 | 0.63 relative to IgG4

biological target: T1, human Mac-1 (integrin αMβ2, CD11b/CD18); assay: flow cytometry, HEK293/Mac-1 cells (clone 1-4), PBS (Mock)
Procedure: as §1, §3

Row | Binder | Mock MFI
56 | B1 | 108000 MFI
57 | B2 | 56800 MFI
58 | B3 | 55900 MFI
59 | B4 | 1.03e+06 MFI
60 | B5 | 51800 MFI
61 | B6 | 34600 MFI
62 | B7 | 29500 MFI
63 | B8 | 50000 MFI
64 | B9 | 39800 MFI
65 | B10 | 35700 MFI
66 | B11 | 41600 MFI

biological target: T2, mouse Mac-1 (mouse, UniProt P05555 17-1153; P11835 24-771); assay: flow cytometry, Raw 264.7 cells
T2 construct: whole, on cells; also called Raw264.7
T2 sequence (P05555 17-1153, chain 1 of 2): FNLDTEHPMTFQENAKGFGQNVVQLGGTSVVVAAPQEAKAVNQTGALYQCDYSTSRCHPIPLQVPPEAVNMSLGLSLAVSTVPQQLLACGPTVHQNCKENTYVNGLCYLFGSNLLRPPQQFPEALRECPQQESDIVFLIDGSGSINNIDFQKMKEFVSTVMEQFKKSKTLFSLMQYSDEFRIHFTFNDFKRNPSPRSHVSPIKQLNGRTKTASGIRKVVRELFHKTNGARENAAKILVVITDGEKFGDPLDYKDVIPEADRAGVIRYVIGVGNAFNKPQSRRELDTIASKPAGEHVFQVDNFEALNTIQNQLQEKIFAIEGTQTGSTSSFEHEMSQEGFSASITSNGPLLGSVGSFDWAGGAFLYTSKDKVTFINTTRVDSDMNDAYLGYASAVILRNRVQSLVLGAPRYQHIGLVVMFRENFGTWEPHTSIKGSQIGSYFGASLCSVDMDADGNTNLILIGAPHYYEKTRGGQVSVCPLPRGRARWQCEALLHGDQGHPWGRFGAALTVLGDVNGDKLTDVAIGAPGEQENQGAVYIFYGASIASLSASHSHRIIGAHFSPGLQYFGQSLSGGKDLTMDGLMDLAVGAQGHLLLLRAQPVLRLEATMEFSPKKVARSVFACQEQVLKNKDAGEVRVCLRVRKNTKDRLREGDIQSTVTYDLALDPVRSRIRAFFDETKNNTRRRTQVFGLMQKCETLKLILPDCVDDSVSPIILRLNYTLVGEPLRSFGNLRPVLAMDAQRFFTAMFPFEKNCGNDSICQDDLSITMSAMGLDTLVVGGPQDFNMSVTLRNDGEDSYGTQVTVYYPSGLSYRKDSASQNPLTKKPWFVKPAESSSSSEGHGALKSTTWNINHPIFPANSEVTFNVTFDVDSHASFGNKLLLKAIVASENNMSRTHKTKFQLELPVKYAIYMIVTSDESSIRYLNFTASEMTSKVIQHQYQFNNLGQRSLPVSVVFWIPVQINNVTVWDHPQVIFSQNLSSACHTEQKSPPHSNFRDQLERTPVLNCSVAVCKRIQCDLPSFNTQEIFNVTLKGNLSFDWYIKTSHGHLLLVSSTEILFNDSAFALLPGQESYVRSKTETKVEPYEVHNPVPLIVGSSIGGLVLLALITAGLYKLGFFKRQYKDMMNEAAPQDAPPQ
T2 sequence (P11835 24-771, chain 2 of 2): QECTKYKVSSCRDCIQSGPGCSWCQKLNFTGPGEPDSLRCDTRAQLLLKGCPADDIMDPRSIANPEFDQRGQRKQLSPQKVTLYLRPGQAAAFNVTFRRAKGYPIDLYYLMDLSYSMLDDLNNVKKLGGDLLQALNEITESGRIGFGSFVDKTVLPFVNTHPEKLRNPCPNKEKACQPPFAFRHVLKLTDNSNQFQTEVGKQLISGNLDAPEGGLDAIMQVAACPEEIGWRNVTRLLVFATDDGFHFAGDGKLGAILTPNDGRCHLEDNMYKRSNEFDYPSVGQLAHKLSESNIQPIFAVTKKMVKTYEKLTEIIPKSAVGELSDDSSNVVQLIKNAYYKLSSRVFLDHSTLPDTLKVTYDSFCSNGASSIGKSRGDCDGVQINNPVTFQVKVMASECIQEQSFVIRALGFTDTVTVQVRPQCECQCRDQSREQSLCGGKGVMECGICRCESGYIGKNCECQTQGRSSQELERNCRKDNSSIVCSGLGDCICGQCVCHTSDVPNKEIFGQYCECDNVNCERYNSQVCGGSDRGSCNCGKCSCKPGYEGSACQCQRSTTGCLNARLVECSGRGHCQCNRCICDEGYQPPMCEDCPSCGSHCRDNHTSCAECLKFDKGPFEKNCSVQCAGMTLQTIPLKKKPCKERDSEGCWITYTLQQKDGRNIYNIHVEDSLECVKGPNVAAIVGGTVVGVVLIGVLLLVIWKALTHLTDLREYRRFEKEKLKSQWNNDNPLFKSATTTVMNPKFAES

Row | Binder | binding result
67 | B1 | binds
68 | B6 | binds

biological target: T1, human Mac-1 (integrin αMβ2, CD11b/CD18); assay: flow cytometry, HEK293/Mac-1 cells, PBS (Mock), 10 µg/ml of this antibody; binding of reporter mAb m24 read
Procedure: as §1, §4

Row | Binder | m24 (Expression relative to IgG4)
69 | B1 | 0.88 relative to IgG4
70 | B2 | 0.64 relative to IgG4
71 | B3 | 25 relative to IgG4
72 | B4 | 0.83 relative to IgG4
73 | B5 | 0.65 relative to IgG4
74 | B6 | 28.4 relative to IgG4
75 | B7 | 0.72 relative to IgG4
76 | B8 | 21.2 relative to IgG4
77 | B9 | 19.1 relative to IgG4
78 | B10 | 24 relative to IgG4
79 | B11 | 0.44 relative to IgG4
